This is an account of results in patent US20120108492A1, “LIGAND-SPECIFIC NON-ANTIBODY COMPOUNDS THAT INHIBIT CR2 ACTIVATION AND METHODS OF USE THEREOF” (The Regents of the University of Colorado, priority 2008, published 2012).

What all share (format): binding
Assay [1] concerns anti-CR2 SCR1-2 mAb 629. In words: MBP-CR2 SCR1-2-629 mAb ELISA. The settings on record: mutant MBP-CR2 SCR1-2 relative to wild-type; for % 629 mAb Bindng: plate-bound 629 mAb. From the text:
The excellent correlation observed between our cell-binding studies and the ELISA analyses provides proof-of-principle that the MBP-CR2 SCR1-2 ELISA is an effective means of characterizing CR2-ligand interactions. […] See Asokan et al. (2006) J Immunol 177:383-94; Guthridge et al. (2001) J Immunol 167:5758-66; Young et al. (2007) J Biol Chem 282:36614-36625. […] This epitope overlaps extensively with the binding surface on CR2 described above for EBV gp350, and also with the previously described binding sites for C3dg and C3d. Hannan et al. (2005) J Mol Biol 346:845-58; and Young et al. (2007) J Biol Chem 282:36614-36625.
(§1) After coating, the plates were blocked using 0.1% BSA in a PBS solution, pH 7.4 for one hour at room temperature. The plates were then washed, and incubated with either wild-type or mutant MBP-CR2 SCR1-2, at concentrations ranging from 0.03125-2.0 μg/ml in PBS for one hour at room temperature. After further washing, wild-type or mutant MBP-CR2 binding was detected using commercially available horseradish peroxidase-conjugated anti-MBP mAb (New England Biolabs) according to the manufacturer's instructions.
Background: In an ELISA, binding on a coated surface is turned into a signal by an enzyme label.

In assay [2] the test system is anti-CR2 SCR1-2 monoclonal antibody 171. The experiment in a line: MBP-CR2 SCR1-2-171 mAb ELISA. The settings on record: mutant MBP-CR2 SCR1-2 relative to wild-type; for % 171 mAb Binding: plate-bound 171 mAb. On the procedure:
See Asokan et al. (2006) J Immunol 177:383-94; Guthridge et al. (2001) J Immunol 167:5758-66; Young et al. (2007) J Biol Chem 282:36614-36625. […] Hannan et al. (2005) J Mol Biol 346:845-58; and Young et al. (2007) J Biol Chem 282:36614-36625.
as §1

The target in assay [3] is EBV gp350 (Epstein-Barr virus, UniProt P03200). The experiment in a line: MBP-CR2 SCR1-2 mutant-EBV gp350 ELISA. More on the design: DNA corresponding to residues 1-470 of EBV gp350/220; E. coli biotin carboxyl carrier protein (BCCP) fragment, residues 70-156; hexa-histidine (C); made in house; host or cells: human embryonic kidney 293f freestyle cells (pSecTag2/Hygro B). The settings on record: mutant MBP-CR2 SCR1-2. On the procedure: See Martin et al. (1991) J Exp Med 174:1299-311; Young et al. (2007) J Biol Chem 282:36614-36625; Guthridge et al. (2001) Biochemistry 40:5931-41; and Sarrias et al. (2001) J Immunol 167:1490-9. […] Young et al. (2007) J Biol Chem 282:36614-36625.
as §1

Sequence of EBV gp350 (P03200 1-470): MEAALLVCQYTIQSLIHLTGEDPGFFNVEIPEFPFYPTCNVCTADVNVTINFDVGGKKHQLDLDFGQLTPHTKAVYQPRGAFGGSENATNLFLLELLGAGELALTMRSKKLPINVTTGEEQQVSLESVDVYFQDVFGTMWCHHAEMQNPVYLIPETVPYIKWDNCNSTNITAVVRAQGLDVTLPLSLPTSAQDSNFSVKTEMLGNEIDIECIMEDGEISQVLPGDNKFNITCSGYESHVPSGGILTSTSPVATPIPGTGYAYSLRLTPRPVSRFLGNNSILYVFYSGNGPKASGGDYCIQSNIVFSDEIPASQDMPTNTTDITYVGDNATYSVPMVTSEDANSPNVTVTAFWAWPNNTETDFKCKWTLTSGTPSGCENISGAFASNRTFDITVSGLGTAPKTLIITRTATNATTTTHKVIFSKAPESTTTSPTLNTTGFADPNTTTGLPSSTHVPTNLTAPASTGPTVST

B1: R28A: single-site mutant of recombinant MBP-CR2 SCR1-2 (protein)
chain: ISCGSPPPILNGRISYYSTPIAVGTVIAYSCSGTFRLIGEKSLLCITKDKVDGTWDKPAPKCEYFNKYSSCPEPIVPGGYKIRGSTPYRHGDSVTFACKTNFSMNGNKSVWCQANNMWGPTRLPTCVSVFPLE
modifications: left off: large carriers; small tags and cut ends
In the case of B1, in assay [1], the “Weighting (629 mAb)” value was “++++ (++++>90%)” and the “% 629 mAb Bindng” value is 103.1%. For the same molecule, in assay [2], the “Weighting (171 mAb)” value is reported as “++++ (++++>90%)” and the “% 171 mAb Binding” value was determined as 103.5%. Also, the “EBV gp350 binding relative to wild-type CR2” value in assay [3] is “significantly decreased capacity”.

B2: N11A: single-site mutant of recombinant MBP-CR2 SCR1-2 (protein)
chain: ISCGSPPPILAGRISYYSTPIAVGTVIRYSCSGTFRLIGEKSLLCITKDKVDGTWDKPAPKCEYFNKYSSCPEPIVPGGYKIRGSTPYRHGDSVTFACKTNFSMNGNKSVWCQANNMWGPTRLPTCVSVFPLE
modifications: left off: large carriers; small tags and cut ends
Regarding B2, in assay [1], the “Weighting (629 mAb)” value is reported as “+++ (+++89.9-70%)” and the “% 629 mAb Bindng” value is reported as 87.5%. For the same molecule, in assay [2], the “Weighting (171 mAb)” value is “+ (+39.9-20%)” and the “% 171 mAb Binding” value is 24.1%.

B3: M117A: single-site mutant of recombinant MBP-CR2 SCR1-2 (protein)
chain: ISCGSPPPILNGRISYYSTPIAVGTVIRYSCSGTFRLIGEKSLLCITKDKVDGTWDKPAPKCEYFNKYSSCPEPIVPGGYKIRGSTPYRHGDSVTFACKTNFSMNGNKSVWCQANNAWGPTRLPTCVSVFPLE
modifications: left off: large carriers; small tags and cut ends
As for B3, in assay [1], the “Weighting (629 mAb)” value was “++++ (++++>90%)” and the “% 629 mAb Bindng” value is given as 113.8%. In addition, in assay [2], the “Weighting (171 mAb)” value is “++++ (++++>90%)” and the “% 171 mAb Binding” value was determined as 97.2%.

B4: T34A: single-site mutant of recombinant MBP-CR2 SCR1-2 (protein)
chain: ISCGSPPPILNGRISYYSTPIAVGTVIRYSCSGAFRLIGEKSLLCITKDKVDGTWDKPAPKCEYFNKYSSCPEPIVPGGYKIRGSTPYRHGDSVTFACKTNFSMNGNKSVWCQANNMWGPTRLPTCVSVFPLE
modifications: left off: large carriers; small tags and cut ends
Regarding B4, in assay [1], the “Weighting (629 mAb)” value is listed as “+++ (+++89.9-70%)” and the “% 629 mAb Bindng” value turned out to be 84.9%. Also, in assay [2], the “Weighting (171 mAb)” value is on record as “− (−19.9-0%)” and the “% 171 mAb Binding” value amounted to 12.4%.

B5: K50A: single-site mutant of recombinant MBP-CR2 SCR1-2 (protein)
chain: ISCGSPPPILNGRISYYSTPIAVGTVIRYSCSGTFRLIGEKSLLCITKDAVDGTWDKPAPKCEYFNKYSSCPEPIVPGGYKIRGSTPYRHGDSVTFACKTNFSMNGNKSVWCQANNMWGPTRLPTCVSVFPLE
modifications: left off: large carriers; small tags and cut ends
Regarding B5, in assay [1], the “Weighting (629 mAb)” value is reported as “+++ (+++89.9-70%)” and the “% 629 mAb Bindng” value worked out at 87.5%. Moreover, in assay [2], the “Weighting (171 mAb)” value is reported as “++++ (++++>90%)” and the “% 171 mAb Binding” value amounted to 94.4%.

B6: T86A: single-site mutant of recombinant MBP-CR2 SCR1-2 (protein)
chain: ISCGSPPPILNGRISYYSTPIAVGTVIRYSCSGTFRLIGEKSLLCITKDKVDGTWDKPAPKCEYFNKYSSCPEPIVPGGYKIRGSAPYRHGDSVTFACKTNFSMNGNKSVWCQANNMWGPTRLPTCVSVFPLE
modifications: left off: large carriers; small tags and cut ends
As to B6, in assay [1], the “Weighting (629 mAb)” value is reported as “+++ (+++89.9-70%)” and the “% 629 mAb Bindng” value is recorded as 85.6%. For the same molecule, in assay [2], the “Weighting (171 mAb)” value is recorded as “+++ (+++89.9-70%)” and the “% 171 mAb Binding” value worked out at 89.6%.

B7: R36A: single-site mutant of recombinant MBP-CR2 SCR1-2 (protein)
chain: ISCGSPPPILNGRISYYSTPIAVGTVIRYSCSGTFALIGEKSLLCITKDKVDGTWDKPAPKCEYFNKYSSCPEPIVPGGYKIRGSTPYRHGDSVTFACKTNFSMNGNKSVWCQANNMWGPTRLPTCVSVFPLE
modifications: left off: large carriers; small tags and cut ends
For B7, in assay [1], the “Weighting (629 mAb)” value is reported as “++++ (++++>90%)” and the “% 629 mAb Bindng” value came out at 113.9%. Besides, in assay [2], the “Weighting (171 mAb)” value was “− (−19.9-0%)” and the “% 171 mAb Binding” value turned out to be 19.8%.

B8: K41A: single-site mutant of recombinant MBP-CR2 SCR1-2 (protein)
chain: ISCGSPPPILNGRISYYSTPIAVGTVIRYSCSGTFRLIGEASLLCITKDKVDGTWDKPAPKCEYFNKYSSCPEPIVPGGYKIRGSTPYRHGDSVTFACKTNFSMNGNKSVWCQANNMWGPTRLPTCVSVFPLE
modifications: left off: large carriers; small tags and cut ends
As for B8, in assay [1], the “Weighting (629 mAb)” value is on record as “++++ (++++>90%)” and the “% 629 mAb Bindng” value came out at 97.5%. In addition, in assay [2], the “Weighting (171 mAb)” value is given as “++++ (++++>90%)” and the “% 171 mAb Binding” value amounted to 97.3%. The “EBV gp350 binding relative to wild-type CR2” value in assay [3] was “significantly decreased capacity”.

B9: Y64A: single-site mutant of recombinant MBP-CR2 SCR1-2 (protein)
chain: ISCGSPPPILNGRISYYSTPIAVGTVIRYSCSGTFRLIGEKSLLCITKDKVDGTWDKPAPKCEAFNKYSSCPEPIVPGGYKIRGSTPYRHGDSVTFACKTNFSMNGNKSVWCQANNMWGPTRLPTCVSVFPLE
modifications: left off: large carriers; small tags and cut ends
Turning to B9, in assay [1], the “Weighting (629 mAb)” value is listed as “+++ (+++89.9-70%)” and the “% 629 mAb Bindng” value turned out to be 82.0%. For the same molecule, in assay [2], the “Weighting (171 mAb)” value is reported as “− (−19.9-0%)” and the “% 171 mAb Binding” value was determined as 5.8%.

B10: Y68A: single-site mutant of recombinant MBP-CR2 SCR1-2 (protein)
chain: ISCGSPPPILNGRISYYSTPIAVGTVIRYSCSGTFRLIGEKSLLCITKDKVDGTWDKPAPKCEYFNKASSCPEPIVPGGYKIRGSTPYRHGDSVTFACKTNFSMNGNKSVWCQANNMWGPTRLPTCVSVFPLE
modifications: left off: large carriers; small tags and cut ends
As to B10, in assay [1], the “Weighting (629 mAb)” value is on record as “++++ (++++>90%)” and the “% 629 mAb Bindng” value stood at 102.3%. In assay [2], the “Weighting (171 mAb)” value is “++++ (++++>90%)” and the “% 171 mAb Binding” value came to 92.1%.

B11: R13A: single-site mutant of recombinant MBP-CR2 SCR1-2 (protein)
chain: ISCGSPPPILNGAISYYSTPIAVGTVIRYSCSGTFRLIGEKSLLCITKDKVDGTWDKPAPKCEYFNKYSSCPEPIVPGGYKIRGSTPYRHGDSVTFACKTNFSMNGNKSVWCQANNMWGPTRLPTCVSVFPLE
modifications: left off: large carriers; small tags and cut ends
For B11, in assay [1], the “Weighting (629 mAb)” value was “++++ (++++>90%)” and the “% 629 mAb Bindng” value came out at 108.1%. In assay [2], the “Weighting (171 mAb)” value is “− (−19.9-0%)” and the “% 171 mAb Binding” value came out at 15.6%.

B12: S32A: single-site mutant of recombinant MBP-CR2 SCR1-2 (protein)
chain: ISCGSPPPILNGRISYYSTPIAVGTVIRYSCAGTFRLIGEKSLLCITKDKVDGTWDKPAPKCEYFNKYSSCPEPIVPGGYKIRGSTPYRHGDSVTFACKTNFSMNGNKSVWCQANNMWGPTRLPTCVSVFPLE
modifications: left off: large carriers; small tags and cut ends
Turning to B12, in assay [1], the “Weighting (629 mAb)” value is “++++ (++++>90%)” and the “% 629 mAb Bindng” value is listed as 117.8%. In assay [2], the “Weighting (171 mAb)” value is listed as “+++ (+++89.9-70%)” and the “% 171 mAb Binding” value turned out to be 77.5%.
